Experimental data taken from patent publication US20190185537A1 (AstraZeneca / MedImmune, published 2019).
Numbered stars: 1 amine (or outer) side, 2 acyl side, 3 side chain; on linkers, the order of the positions; unused ones are H or OH. Side chains are listed from the residue outwards. Ends that are not written are not given here. * marks the point of attachment. γGlu = O=C(O)[C@H](CCC(=O)[*:2])N[*:1]; Palmitoyl = CCCCCCCCCCCCCCCC(=O)*; Ahx = NCCCCCC(=O)O; βAla = NCCC(=O)O

T1: human glucose-dependent insulinotropic peptide (gastric inhibitory polypeptide) receptor (human) (UniProt P48546)
T1 sequence (looked up): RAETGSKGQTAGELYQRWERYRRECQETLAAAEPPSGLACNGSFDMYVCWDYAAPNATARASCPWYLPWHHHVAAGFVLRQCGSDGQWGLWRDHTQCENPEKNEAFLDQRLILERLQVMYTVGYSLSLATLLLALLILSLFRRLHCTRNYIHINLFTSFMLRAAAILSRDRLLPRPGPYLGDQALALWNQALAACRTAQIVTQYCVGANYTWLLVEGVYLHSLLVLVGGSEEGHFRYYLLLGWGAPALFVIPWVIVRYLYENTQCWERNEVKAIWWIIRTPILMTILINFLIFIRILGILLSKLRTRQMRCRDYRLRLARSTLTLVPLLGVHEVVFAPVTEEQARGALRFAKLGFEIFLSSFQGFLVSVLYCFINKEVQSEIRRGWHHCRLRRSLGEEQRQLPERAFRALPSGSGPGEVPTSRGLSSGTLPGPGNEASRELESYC

B1: g727 (peptide)
peptide: HGQGTFTSDYSEYLDSK([Ahx-Palmitoyl])RARDFVAWLERGG-OH
modifications: N-terminus assumed
SMILES: CCCCCCCCCCCCCCCC(=O)NCCCCCC(=O)NCCCC[C@H](NC(=O)[C@H](CO)NC(=O)[C@H](CC(=O)O)NC(=O)[C@H](CC(C)C)NC(=O)[C@H](Cc1ccc(O)cc1)NC(=O)[C@H](CCC(=O)O)NC(=O)[C@H](CO)NC(=O)[C@H](Cc1ccc(O)cc1)NC(=O)[C@H](CC(=O)O)NC(=O)[C@H](CO)NC(=O)[C@@H](NC(=O)[C@H](Cc1ccccc1)NC(=O)[C@@H](NC(=O)CNC(=O)[C@H](CCC(N)=O)NC(=O)CNC(=O)[C@@H](N)Cc1c[nH]cn1)[C@@H](C)O)[C@@H](C)O)C(=O)N[C@@H](CCCNC(=N)N)C(=O)N[C@@H](C)C(=O)N[C@@H](CCCNC(=N)N)C(=O)N[C@@H](CC(=O)O)C(=O)N[C@@H](Cc1ccccc1)C(=O)N[C@H](C(=O)N[C@@H](C)C(=O)N[C@@H](Cc1c[nH]c2ccccc12)C(=O)N[C@@H](CC(C)C)C(=O)N[C@@H](CCC(=O)O)C(=O)N[C@@H](CCCNC(=N)N)C(=O)NCC(=O)NCC(=O)O)C(C)C
B2: g794 (peptide)
peptide: HSQGTFTSDYSEYLDSK([Ahx-Palmitoyl])RARDFVAWLERGG-NH2
modifications: not fully specified
B3: g772 (peptide)
peptide: HSQGTFTSDYSEYLDSK([γGlu-Palmitoyl])RARDFVAWLERGG-NH2
modifications: not fully specified
B4: g725 (peptide)
peptide: HGEGTFTSDYSEYLDSK([Ahx-Palmitoyl])RAADFVAWLERGG-NH2
modifications: N-terminus assumed
SMILES: CCCCCCCCCCCCCCCC(=O)NCCCCCC(=O)NCCCC[C@H](NC(=O)[C@H](CO)NC(=O)[C@H](CC(=O)O)NC(=O)[C@H](CC(C)C)NC(=O)[C@H](Cc1ccc(O)cc1)NC(=O)[C@H](CCC(=O)O)NC(=O)[C@H](CO)NC(=O)[C@H](Cc1ccc(O)cc1)NC(=O)[C@H](CC(=O)O)NC(=O)[C@H](CO)NC(=O)[C@@H](NC(=O)[C@H](Cc1ccccc1)NC(=O)[C@@H](NC(=O)CNC(=O)[C@H](CCC(=O)O)NC(=O)CNC(=O)[C@@H](N)Cc1c[nH]cn1)[C@@H](C)O)[C@@H](C)O)C(=O)N[C@@H](CCCNC(=N)N)C(=O)N[C@@H](C)C(=O)N[C@@H](C)C(=O)N[C@@H](CC(=O)O)C(=O)N[C@@H](Cc1ccccc1)C(=O)N[C@H](C(=O)N[C@@H](C)C(=O)N[C@@H](Cc1c[nH]c2ccccc12)C(=O)N[C@@H](CC(C)C)C(=O)N[C@@H](CCC(=O)O)C(=O)N[C@@H](CCCNC(=N)N)C(=O)NCC(=O)NCC(N)=O)C(C)C
B5: g726 (peptide)
peptide: HGEGTFTSDYSEYLDSK([Ahx-Palmitoyl])RARDFVEWLERGG-NH2
modifications: N-terminus assumed
SMILES: CCCCCCCCCCCCCCCC(=O)NCCCCCC(=O)NCCCC[C@H](NC(=O)[C@H](CO)NC(=O)[C@H](CC(=O)O)NC(=O)[C@H](CC(C)C)NC(=O)[C@H](Cc1ccc(O)cc1)NC(=O)[C@H](CCC(=O)O)NC(=O)[C@H](CO)NC(=O)[C@H](Cc1ccc(O)cc1)NC(=O)[C@H](CC(=O)O)NC(=O)[C@H](CO)NC(=O)[C@@H](NC(=O)[C@H](Cc1ccccc1)NC(=O)[C@@H](NC(=O)CNC(=O)[C@H](CCC(=O)O)NC(=O)CNC(=O)[C@@H](N)Cc1c[nH]cn1)[C@@H](C)O)[C@@H](C)O)C(=O)N[C@@H](CCCNC(=N)N)C(=O)N[C@@H](C)C(=O)N[C@@H](CCCNC(=N)N)C(=O)N[C@@H](CC(=O)O)C(=O)N[C@@H](Cc1ccccc1)C(=O)N[C@H](C(=O)N[C@@H](CCC(=O)O)C(=O)N[C@@H](Cc1c[nH]c2ccccc12)C(=O)N[C@@H](CC(C)C)C(=O)N[C@@H](CCC(=O)O)C(=O)N[C@@H](CCCNC(=N)N)C(=O)NCC(=O)NCC(N)=O)C(C)C
B6: g806 (peptide)
peptide: HSQGTFTSDYSKYLDSRAAQK([Ahx-Palmitoyl])FVQWLERGG-NH2
modifications: not fully specified
B7: g316 (peptide)
peptide: HSQGTFTSDYSKYLDSRRAQDFVQWLVAGGSSGGSS-NH2
B8: g771 (peptide)
peptide: HSQGTFTSDYSEYLDSK([Ahx-Palmitoyl])RARDFVEWLERGG-NH2
modifications: not fully specified
B9: g818 (peptide)
peptide: HSQGTFTSDYSEYLDSK([Ahx-Palmitoyl])RAADFVAWLERGG-NH2
modifications: not fully specified
B10: g795 (peptide)
peptide: HSQGTFTSDYSEYLDSK([βAla-Palmitoyl])RARDFVAWLERGG-NH2
modifications: not fully specified
B11: g721 (peptide)
peptide: HGQGTFTSDYSEYLDSK([γGlu-Palmitoyl])RARDFVAWLERGG-NH2
modifications: N-terminus assumed
SMILES: CCCCCCCCCCCCCCCC(=O)N[C@@H](CCC(=O)NCCCC[C@H](NC(=O)[C@H](CO)NC(=O)[C@H](CC(=O)O)NC(=O)[C@H](CC(C)C)NC(=O)[C@H](Cc1ccc(O)cc1)NC(=O)[C@H](CCC(=O)O)NC(=O)[C@H](CO)NC(=O)[C@H](Cc1ccc(O)cc1)NC(=O)[C@H](CC(=O)O)NC(=O)[C@H](CO)NC(=O)[C@@H](NC(=O)[C@H](Cc1ccccc1)NC(=O)[C@@H](NC(=O)CNC(=O)[C@H](CCC(N)=O)NC(=O)CNC(=O)[C@@H](N)Cc1c[nH]cn1)[C@@H](C)O)[C@@H](C)O)C(=O)N[C@@H](CCCNC(=N)N)C(=O)N[C@@H](C)C(=O)N[C@@H](CCCNC(=N)N)C(=O)N[C@@H](CC(=O)O)C(=O)N[C@@H](Cc1ccccc1)C(=O)N[C@H](C(=O)N[C@@H](C)C(=O)N[C@@H](Cc1c[nH]c2ccccc12)C(=O)N[C@@H](CC(C)C)C(=O)N[C@@H](CCC(=O)O)C(=O)N[C@@H](CCCNC(=N)N)C(=O)NCC(=O)NCC(N)=O)C(C)C)C(=O)O
B12: g826 (peptide)
peptide: HSQGTFTSDYSEYLDSK([Ahx-Palmitoyl])RARDFVAWLERGG-OH
modifications: not fully specified
B13: g315 (peptide)
peptide: HSQGTFTSDYSKYLDSRRAQDFVQWLVAGGGGGG-NH2
B14: g724 (peptide)
peptide: HGEGTFTSDYSEYLDSK([Ahx-Palmitoyl])RARDFVAWLERGG-NH2
modifications: N-terminus assumed
SMILES: CCCCCCCCCCCCCCCC(=O)NCCCCCC(=O)NCCCC[C@H](NC(=O)[C@H](CO)NC(=O)[C@H](CC(=O)O)NC(=O)[C@H](CC(C)C)NC(=O)[C@H](Cc1ccc(O)cc1)NC(=O)[C@H](CCC(=O)O)NC(=O)[C@H](CO)NC(=O)[C@H](Cc1ccc(O)cc1)NC(=O)[C@H](CC(=O)O)NC(=O)[C@H](CO)NC(=O)[C@@H](NC(=O)[C@H](Cc1ccccc1)NC(=O)[C@@H](NC(=O)CNC(=O)[C@H](CCC(=O)O)NC(=O)CNC(=O)[C@@H](N)Cc1c[nH]cn1)[C@@H](C)O)[C@@H](C)O)C(=O)N[C@@H](CCCNC(=N)N)C(=O)N[C@@H](C)C(=O)N[C@@H](CCCNC(=N)N)C(=O)N[C@@H](CC(=O)O)C(=O)N[C@@H](Cc1ccccc1)C(=O)N[C@H](C(=O)N[C@@H](C)C(=O)N[C@@H](Cc1c[nH]c2ccccc12)C(=O)N[C@@H](CC(C)C)C(=O)N[C@@H](CCC(=O)O)C(=O)N[C@@H](CCCNC(=N)N)C(=O)NCC(=O)NCC(N)=O)C(C)C

Each binder was assayed against human glucagon receptor (human, UniProt P47871 26-477) (assay: cell-based or functional assay).
human glucagon receptor, sequence (P47871 26-477): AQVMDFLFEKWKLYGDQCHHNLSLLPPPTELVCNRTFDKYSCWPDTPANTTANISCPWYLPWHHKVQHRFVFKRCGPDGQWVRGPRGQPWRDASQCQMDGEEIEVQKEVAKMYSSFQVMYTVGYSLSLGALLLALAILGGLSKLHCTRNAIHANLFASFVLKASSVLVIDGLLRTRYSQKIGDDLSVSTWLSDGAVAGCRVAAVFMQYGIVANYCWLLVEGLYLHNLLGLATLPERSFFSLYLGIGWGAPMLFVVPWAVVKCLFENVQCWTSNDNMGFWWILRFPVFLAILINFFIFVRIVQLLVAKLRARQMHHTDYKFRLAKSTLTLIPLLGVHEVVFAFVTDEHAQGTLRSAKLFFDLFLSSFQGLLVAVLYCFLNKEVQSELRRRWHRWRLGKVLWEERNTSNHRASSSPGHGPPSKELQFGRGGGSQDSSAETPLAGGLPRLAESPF

| cAMP EC50 (assay 1) [nM] | Binder |
| --- | --- |
| 0.218 | B1 |
| 0.00469 | B2 |
| 0.184 | B3 |
| 59.9 | B4 |
| 13.1 | B5 |
| 0.0099 | B6 |
| 0.0106 | B7 |
| 0.00551 | B8 |
| 0.0089 | B9 |
| 0.11 | B10 |
| 3.23 | B11 |
| 0.00423 | B12 |
| 0.00504 | B13 |
| 30.9 | B14 |

What follows are binders tested against human GLP-1 receptor (human, UniProt P43220 24-463) (assay: cell-based or functional assay).
human GLP-1 receptor, sequence (P43220 24-463): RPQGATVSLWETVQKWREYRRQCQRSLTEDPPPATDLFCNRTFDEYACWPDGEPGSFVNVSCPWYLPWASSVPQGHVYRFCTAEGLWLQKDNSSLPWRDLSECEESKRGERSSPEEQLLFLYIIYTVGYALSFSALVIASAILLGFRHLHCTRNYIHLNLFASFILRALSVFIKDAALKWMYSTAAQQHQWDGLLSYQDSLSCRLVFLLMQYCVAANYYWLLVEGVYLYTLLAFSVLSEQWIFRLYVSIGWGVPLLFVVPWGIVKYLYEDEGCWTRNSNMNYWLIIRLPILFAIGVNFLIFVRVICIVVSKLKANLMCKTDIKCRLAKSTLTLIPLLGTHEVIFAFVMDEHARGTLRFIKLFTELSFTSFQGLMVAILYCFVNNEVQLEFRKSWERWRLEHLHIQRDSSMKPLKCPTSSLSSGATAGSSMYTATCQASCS

| cAMP EC50 (assay 1) [nM] | Binder |
| --- | --- |
| 0.0263 | B1 |
| 0.0157 | B2 |
| 0.292 | B3 |
| 0.0252 | B4 |
| 0.00791 | B5 |
| 0.171 | B6 |
| 0.0314 | B7 |
| 0.0175 | B8 |
| 0.021 | B9 |
| 0.0734 | B10 |
| 0.411 | B11 |
| 0.0293 | B12 |
| 0.0273 | B13 |
| 0.019 | B14 |

Each binder was assayed against T1, human glucose-dependent insulinotropic peptide (gastric inhibitory polypeptide) receptor (human) (assay: cell-based or functional assay).

| cAMP EC50 (assay 1) [nM] | Binder |
| --- | --- |
| 177 | B1 |
| 32.2 | B2 |
| 1540 | B3 |
| 1480 | B4 |
| 215 | B5 |
| 105 | B6 |
| 3.65 | B7 |
| 37.1 | B8 |
| 94 | B9 |
| 579 | B10 |
| 979 | B11 |
| 58 | B12 |
| 19.7 | B13 |
| 933 | B14 |
